Results on four molecules are retold here after PMC5856423, “Structural basis for recognition of the central conserved region of RSV G by neutralizing human antibodies” (PLoS Pathogens, 2018).

The target of test [1] is secreted form of RSV G from strain A2 (sG) (human respiratory syncytial virus strain A2).
Test [2] has as its target reduced and alkylated form of the G peptide (human respiratory syncytial virus subtype A) (UniProt P03423). Put plainly: SPR; G peptide (or its reduced and alkylated form) immobilised on a CM5 chip by primary-amine coupling (25 RU), Biacore X100; Fab in serial 2-fold dilutions in HBS-P+ (CB002.5 25 nM-98 pM, CB017.5 100 nM-195 pM; on the reduced and alkylated peptide CB002.5 1,000-1.95 nM, CB017.5 62.5-1.95 nM); 1:1 binding model. A general note: In SPR one partner is held on a chip, and binding of the other changes the refractive index at the surface.

Test [3] concerns the target T1, 45-residue synthetic peptide encompassing the subtype A RSV G central conserved region (G peptide) (Human respiratory syncytial virus A …, not fully specified; N-terminal biotin coupling as the last step in synthesis; disulfide bonds of the cystine noose formed by oxidative folding).
T1 construct: attachment glycoprotein G of human RSV subtype A, central conserved region, residues Asn153-Lys197 (45 residues); also called RSV G peptide; subtype A RSV G peptide; source: synthetic peptide (Fmoc solid phase, HPLC), oxidatively folded
T1 chain: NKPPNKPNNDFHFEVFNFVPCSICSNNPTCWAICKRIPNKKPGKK
The description is as above. The settings on record: both partners purified.

In test [4] the target is T2, secreted form of RSV G from strain A2 (sG) (Human respiratory syncytial virus A, …, UniProt P03423, strain).
T2 construct: attachment glycoprotein G of human respiratory syncytial virus strain A2, secreted form (sG); also called RSV sG; wild-type RSV sG from strain A2; source: FreeStyle 293-F, transfected, purified from supernatant (Strep-Tactin, SEC); not shown: 8xHis, C-terminal, kept
Put plainly: SPR; sG captured by its C-terminal 8xHis tag on an NTA sensor chip (60-150 RU), Biacore X100; Fab in serial 3-fold dilutions from 300 nM to 46.5 pM in HBS-P+; double-reference subtracted, 1:1 binding model. As to conditions: both partners purified.

For test [5], the target named is T3, 32-residue peptide encompassing RSV G Phe165-Lys196, subtype B (Human respiratory syncytial virus …, UniProt O36633, strain).
T3 construct: attachment glycoprotein G of human RSV subtype B, residues Phe165-Lys196; The tested set is a series of alanine mutants of this peptide; source: covalently linked peptides on Pepscan cards
T3 chain: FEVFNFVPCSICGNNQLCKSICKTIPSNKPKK
The experiment in a line: peptide or protein array; Pepscan-based ELISA: peptides covalently linked in the wells of cards, mAb at 1-10 ng/mL overnight at 4°C in PBS with horse serum, OVA and Tween 80; HRP-linked anti-human IgG, ABTS. The settings on record: both partners purified. (In general: An ELISA detects its analyte on a solid surface through an enzyme-linked reagent.)

B1: CB002.5 IgG (antibody, V domains shown)
VH: QVQLQESGPRLVKPSETLSLTCTVSGGSTSSYFWNWIRQPPGKGLEWIGYIYGSGSADYNPSLKSRVTISIDTSKTQFSLKLTSVTAADTAVYYCARSGFCSDDACYRRGSWFDPWGQGTLVTVSS
VL: DIQMTQSPSSLSASVGDRVTITCRASQSIDNYLNWYQQKPGKAPKLLIYAASGLQSGVPSRFSGSGSGTEFTLTVSSLHPEDFATYYCQQSYSTLTWTFGQGTKVEIK
For the molecule B1, in test [1], the IC50 of neutralization of RSV (rgRSV224) infection of primary HBECs at an air-liquid interface, in the absence of complement; pair that is blocked: RSV G and CX3CR1 was found to be 4.7 nM.

B2: Fab CB002.5 (Fab, V domains shown)
VH: QVQLQESGPRLVKPSETLSLTCTVSGGSTSSYFWNWIRQPPGKGLEWIGYIYGSGSADYNPSLKSRVTISIDTSKTQFSLKLTSVTAADTAVYYCARSGFCSDDACYRRGSWFDPWGQGTLVTVSS
VL: DIQMTQSPSSLSASVGDRVTITCRASQSIDNYLNWYQQKPGKAPKLLIYAASGLQSGVPSRFSGSGSGTEFTLTVSSLHPEDFATYYCQQSYSTLTWTFGQGTKVEIK
notes: human; Fab cut with papain from full-length IgG1; source: IgG from FreeStyle 293-F or PER.C6 cells, transfected, Protein A; Fab by papain digestion, purified (Protein A flow-through, SEC)
What is called Kd is the concentration at which binding is half-saturated. Low readings indicate tighter binding, high ones weaker binding. For B2, the Kd was 18000 nM in test [2], 0.52 nM in test [3] and 3.3 nM in test [4].

B3: CB017.5 IgG (antibody, V domains shown)
VH: QVQLVESGGGVVQPGRSLRLSCSASGFTFSVYAMHWVRQAPGQGLEWVAIIWYDGSNKYYADSVKGRFTISRDNSKETLYLQMNSLRVEDTAVYYCARDPIVGHTRDGLDVWGQGTTVTVSS
VL: SYELTQPPSVSVSPGQTARVTCSGDAMAEQYTYWYQQKPGQAPVLIIFKDTERPSGIPERFSGSSSGTTVTLTISGVQTEDEADYYCQSTDSSGTSWVFGGGTKLTVL
notes: as the light chain of m2 (PDB 6BLH); full-length IgG1; also called antibody CB017.5; source: FreeStyle 293-F or PER.C6 cells, transfected, purified (Protein A)
Turning to B3, the IC50 of neutralization of RSV (rgRSV224) infection of primary HBECs at an air-liquid interface, in the absence of complement; pair that is blocked: RSV G and CX3CR1 in test [1] turned out to be 45.4 nM. The binding result in test [5] was “binds”.

B4: Fab CB017.5 (Fab, V domains shown)
VH: QVQLVESGGGVVQPGRSLRLSCSASGFTFSVYAMHWVRQAPGQGLEWVAIIWYDGSNKYYADSVKGRFTISRDNSKETLYLQMNSLRVEDTAVYYCARDPIVGHTRDGLDVWGQGTTVTVSS
VL: SYELTQPPSVSVSPGQTARVTCSGDAMAEQYTYWYQQKPGQAPVLIIFKDTERPSGIPERFSGSSSGTTVTLTISGVQTEDEADYYCQSTDSSGTSWVFGGGTKLTVL
notes: as for B2
B4: the Kd in test [2] stood at 27 nM; in test [3] it was 4.1 nM; in test [4] it was 2.4 nM.
